Test system: prolyl 4-hydroxylase
Assay: prolyl 4-hydroxylase activity of Triton X-100 extracts from insect cells (hydroxylation-coupled decarboxylation of 2-oxo[1-14C]glutarate)
Format: biochemical
Conditions: Triton extract, 72 h after infection
Description: The 0.2% Triton X-100 extracts of cell homogenates were analyzed for prolyl 4-hydroxylase activity with an assay based on the hydroxylation-coupled decarboxylation of 2-oxo [1-^14C] glutarate (Kivirikko et al., Methods EnzVmol. 82: 245-304 (1982)). As reported previously (Veijola et al., J. Biol. Chem. 269: 26746-26753 (1994)), a significant level of prolyl 4-hydroxylase activity was found in both Sf9 and High Five cells, the activity in High Five cells being distinctly higher than that in Sf9 cells (Table I). […]
Insect cells (Sf9 or High Five, Invitrogen) were cultured in TNM-FH medium (Sigma) supplemented with 10% fetal bovine serum (BioClear) or in a serum-free HyQ CCM3 medium (HyClone) either as monolayers or in suspension in shaker flasks at 27° C. […] The remaining cell pellet that was insoluble in the homogenization buffer was further solubilized in 1% SDS and analyzed by SDS-PAGE^1. […] Aliquots of the supernatants of the cell homogenates and the concentrated cell culture medium were analyzed by denaturing SDS-PAGE, followed by staining with Coomassie Brilliant Blue or Western blotting with an antibody to the N-propeptide of human type III procollagen.

B1: Proα1 (III) chains: Triton X-100 extract of insect cells expressing only proα1 chains of human type III procollagen (protein, UniProt P02461 24-1466, looked up)
pro-form: QQEAVEGGCSHLGQSYADRDVWKPEPCQICVCDSGSVLCDDIICDDQELDCPNPEIPFGECCAVCPQPPTAPTRPPNGQGPQGPKGDPGPPGIPGRNGDPGIPGQPGSPGSPGPPGICESCPTGPQNYSPQYDSYDVKSGVAVGGLAGYPGPAGPPGPPGPPGTSGHPGSPGSPGYQGPPGEPGQAGPSGPPGPPGAIGPSGPAGKDGESGRPGRPGERGLPGPPGIKGPAGIPGFPGMKGHRGFDGRNGEKGETGAPGLKGENGLPGENGAPGPMGPRGAPGERGRPGLPGAAGARGNDGARGSDGQPGPPGPPGTAGFPGSPGAKGEVGPAGSPGSNGAPGQRGEPGPQGHAGAQGPPGPPGINGSPGGKGEMGPAGIPGAPGLMGARGPPGPAGANGAPGLRGGAGEPGKNGAKGEPGPRGERGEAGIPGVPGAKGEDGKDGSPGEPGANGLPGAAGERGAPGFRGPAGPNGIPGEKGPAGERGAPGPAGPRGAAGEPGRDGVPGGPGMRGMPGSPGGPGSDGKPGPPGSQGESGRPGPPGPSGPRGQPGVMGFPGPKGNDGAPGKNGERGGPGGPGPQGPPGKNGETGPQGPPGPTGPGGDKGDTGPPGPQGLQGLPGTGGPPGENGKPGEPGPKGDAGAPGAPGGKGDAGAPGERGPPGLAGAPGLRGGAGPPGPEGGKGAAGPPGPPGAAGTPGLQGMPGERGGLGSPGPKGDKGEPGGPGADGVPGKDGPRGPTGPIGPPGPAGQPGDKGEGGAPGLPGIAGPRGSPGERGETGPPGPAGFPGAPGQNGEPGGKGERGAPGEKGEGGPPGVAGPPGGSGPAGPPGPQGVKGERGSPGGPGAAGFPGARGLPGPPGSNGNPGPPGPSGSPGKDGPPGPAGNTGAPGSPGVSGPKGDAGQPGEKGSPGAQGPPGAPGPLGIAGITGARGLAGPPGMPGPRGSPGPQGVKGESGKPGANGLSGERGPPGPQGLPGLAGTAGEPGRDGNPGSDGLPGRDGSPGGKGDRGENGSPGAPGAPGHPGPPGPVGPAGKSGDRGESGPAGPAGAPGPAGSRGAPGPQGPRGDKGETGERGAAGIKGHRGFPGNPGAPGSPGPAGQQGAIGSPGPAGPRGPVGPSGPPGKDGTSGHPGPIGPPGPRGNRGERGSEGSPGHPGQPGPPGPPGAPGPCCGGVGAAAIAGIGGEKAGGFAPYYGDEPMDFKINTDEIMTSLKSVNGQIESLISPDGSRKNPARNCRDLKFCHPELKSGEYWVDPNQGCKLDAIKVFCNMETGETCISANPLNVPRKHWWTDSSAEKKHVWFGESMDGGFQFSYGNPELPEDVLDVHLAFLRLLSSRASQNITYHCKNSIAYMDQASGNVKKALKLMGSNEGEFKAEGNSKFTYTVLEDGCTKHTGEWSKTVFEYRTRKAVRLPIVDIAPYDIGGPDQEFGVDVGPVCFL
modifications: pro-form
notes: Triton X-100 extract of insect cells expressing only proα1 chains of human type III procollagen
Prolyl 4-hydroxylase activity (High Five cells, mean of duplicates in three experiments): 500 dpm/10 μl | Prolyl 4-hydroxylase activity (Sf9 cells, mean of duplicates in one experiment): 60 dpm/10 μl

Reference: patent publication US20050164345A1, “Synthesis of human procollagens and collagens in recombinant DNA systems” (priority 1992, published 2005)
